Consider 1 substance from paper PMC12814185, “Receptor-Mediated Shuttling of a D‑Amino Acid Peptide Achieves High Nanomolar Cytosolic Concentrations” (Journal of the American Chemical Society, 2025).

The target in this test is recombinant human GST-MDM2 (human) (UniProt Q00987). Description: fluorescence polarisation. A general note: Fluorescence polarisation rises when a labelled molecule tumbles more slowly, as on binding a larger partner.

As usually defined, the Kd is the free concentration of one partner at which half of the binding sites on the other are occupied at equilibrium, for simple one-to-one binding.

recombinant human GST-MDM2 (human), sequence (Q00987 whole entry): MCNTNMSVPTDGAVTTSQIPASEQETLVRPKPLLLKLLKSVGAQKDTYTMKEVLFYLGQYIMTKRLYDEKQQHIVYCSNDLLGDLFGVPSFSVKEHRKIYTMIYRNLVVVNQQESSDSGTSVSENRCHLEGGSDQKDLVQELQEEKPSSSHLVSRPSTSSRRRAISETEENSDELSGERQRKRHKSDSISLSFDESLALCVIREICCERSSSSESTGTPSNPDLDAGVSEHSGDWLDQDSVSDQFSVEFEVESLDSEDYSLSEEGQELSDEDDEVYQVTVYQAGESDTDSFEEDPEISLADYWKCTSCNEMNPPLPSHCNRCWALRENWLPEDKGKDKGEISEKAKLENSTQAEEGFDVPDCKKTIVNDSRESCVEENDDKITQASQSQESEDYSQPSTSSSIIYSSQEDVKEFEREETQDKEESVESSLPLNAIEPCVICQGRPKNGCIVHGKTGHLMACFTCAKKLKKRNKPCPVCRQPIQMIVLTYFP

Take Cy5-r9-PMIγ (peptide): the dissociation constant Kd turned out to be 57 nM.
